According to patent publication US20240190939A1:
Values belong to the substance of their own block, whether it stands above or below them.

Columns and labels:
[1] = biological target: CD47-His; test: ELISA: hCD47 His capture, IgG HRP detection
[2] = biological target: CD155PVR-His; test: ELISA: 'CD115/PVR Capture' as printed (legend: CD155PVR-His), Fc-HRP detection
[3] = biological target: recombinant CD155; test: ELISA: CD155/PVR capture, Fc-HRP detection
[4] = biological target: CD155PVR-His; test: ELISA: CD155-His capture, IgG detection
[5] = biological target: mouse LTbR on CHO-K1 cells (mouse) (UniProt P50284); test: flow cytometry on CHO-K1 cells expressing murine LTbR (the sentence names the second value 'for mCD172a(SIRPα)')
[6] = biological target: mouse LTbR on CHO-K1 cells (mouse) (UniProt P50284); test: flow cytometry on CHO-K1 cells expressing murine LTbR

Sequence of mouse LTbR on CHO-K1 cells (mouse) (P50284 31-415): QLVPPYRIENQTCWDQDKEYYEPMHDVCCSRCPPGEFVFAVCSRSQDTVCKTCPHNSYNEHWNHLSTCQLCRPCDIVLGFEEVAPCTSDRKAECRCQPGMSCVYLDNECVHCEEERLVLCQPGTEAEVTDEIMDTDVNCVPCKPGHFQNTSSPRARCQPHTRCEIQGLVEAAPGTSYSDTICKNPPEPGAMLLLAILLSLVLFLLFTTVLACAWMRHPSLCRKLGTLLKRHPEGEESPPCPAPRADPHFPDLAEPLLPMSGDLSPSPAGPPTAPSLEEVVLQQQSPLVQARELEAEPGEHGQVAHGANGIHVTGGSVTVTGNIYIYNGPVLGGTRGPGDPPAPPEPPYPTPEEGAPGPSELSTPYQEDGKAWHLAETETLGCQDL
Sequence of CD47-His (Q61735 19-140): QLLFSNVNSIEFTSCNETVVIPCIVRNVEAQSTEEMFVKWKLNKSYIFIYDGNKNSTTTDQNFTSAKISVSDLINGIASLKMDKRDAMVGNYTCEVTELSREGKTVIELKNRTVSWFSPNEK

Substance: TIGIT Std (receptor)
EC50 (read off the curve) [2]: 10 nM | EC50 (read off the curve) [3]: 10 nM

Substance: TIGIT-Fc Std (Fc fusion)
EC50 (read off the curve) [4]: 0.07 nM

Substance: murine TIGIT-Fc-LIGHT chimeric protein (from UniProt P86176 29-148) (Fc fusion)
EC50 [6]: 11 nM

Results, then the substance that gave them:

EC50 (read off the curve) [1]: 0.3 nM
Substance: SIRPa-Fc Std (Fc fusion)

EC50 [5]: 24 nM
Substance: murine CD172a(SIRPα)-Fc-LIGHT chimeric protein (from UniProt P97797 32-373) (Fc fusion)
